B1: PGT121 Fab (Fab, V domains shown)
VH: QMQLQESGPGLVKPSETLSLTCSVSGASISDSYWSWIRRSPGKGLEWIGYVHKSGDTNYSPSLKSRVNLSLDTSKNQVSLSLVAATAADSGKYYCARTLHGRRIYGIVAFNEWFTYFYMDVWGNGTQVTVSS
VL: DISVAPGETARISCGEKSLGSRAVQWYQHRAGQAPSLIIYNNQDRPSGIPERFSGSPDSPFGTTATLTITSVEAGDEADYYCHIWDSRVPTKWVFGGGTTLTVL
B2: PGT122 Fab (Fab, V domains shown)
VH: QVHLQESGPGLVKPSETLSLTCNVSGTLVRDNYWSWIRQPLGKQPEWIGYVHDSGDTNYNPSLKSRVHLSLDKSKNLVSLRLTGVTAADSAIYYCATTKHGRRIYGVVAFKEWFTYFYMDVWGKGTSVTVSS
VL: VSVAPGQTARITCGEESLGSRSVIWYQQRPGQAPSLIIYNNNDRPSGIPDRFSGSPGSTFGTTATLTITSVEAGDEADYYCHIWDSRRPTNWVFGEGTTLIVL
B3: PGT123 Fab (Fab, V domains shown)
VH: QLHLQESGPGLVKPPETLSLTCSVSGASINDAYWSWIRQSPGKRPEWVGYVHHSGDTNYNPSLKRRVTFSLDTAKNEVSLKLVDLTAADSATYFCARALHGKRIYGIVALGELFTYFYMDVWGKGTAVTVSS
VL: SSMSVSPGETAKISCGKESIGSRAVQWYQQKPGQPPSLIIYNNQDRPAGVPERFSASPDFRPGTTATLTITNVDAEDEADYYCHIYDARGGTNWVFDRGTTLTVL
B4: JRFL gp120 monomer (near full-length gp120 monomeric construct) (natural protein)
chain: not shown
notes: also called monomeric gp120

Key:
[1] = biological target: T1, JRFL gp120 monomer expressed in HEK 293S cells (HIV-1 clade B, isolate JR-FL, UniProt Q75760, strain); test: ITC; conditions: both partners purified
T1 construct: also called gp120 with immature oligomannose glycans

soluble CD4 = biological target: T2, soluble CD4 (UniProt P01730); test: ITC; conditions: both partners purified
T2 construct: also called sCD4

Binder	binding result [1]	Kd (soluble CD4) [nM]
B1	binds	–
B2	binds	–
B3	binds	–
B4	–	21

Reference: publication PMC3642082 (PLoS Pathogens, 2013)
